Experimental data from publication PMC7864074, “Functions of Gle1 are governed by two distinct modes of self-association” (The Journal of Biological Chemistry, 2020).
Substitutions are numbered along the chain they refer to.

B1: Gle1^(1–360 8D) (domain or fragment, human, UniProt Q53GS7 1-360, looked up)
chain: MPSEGRCWETLKALRSSDKGRLCYYRDWLLRREDVLEECMSLPKLSSYSGWVVEHVLPHMQENQPLSETSPSSTSASALDQPSFVPKSPDASSAFSPASPATPNGTKGKDESQHTESMVLQSSRGIKVEGCVRMYELVHRMKGTEGLRLWQEEQERKVQALSEMASEQLKRFDEWKELKQHKEFQDLREVMEKSSREALGHQEKLKAEHRHRAKILNLKLREAEQQRVKQAEQERLRKEEGQIRLRADYADQEEMLQDSQQDDASEQHKALLKVDLAAFQTRGNQLCSLISGIIRASSESSYPTAESQAEAERADREDRDLDMNDGQEITRACEDKRRQDEEEAQVKLQEAQMQQGPEAH
notes: source: E. coli Rosetta, purified
B2: Gle1^1–360 (domain or fragment, human, UniProt Q53GS7 1-360, looked up)
chain: B1 chain with D248L, D251L, D258L, D262L, D315L, D318M, D322L, D325L
notes: human Gle1, N-terminal region, residues 1-360; also called WT Gle1^1–360; Gle1 N-terminal region; source: E. coli Rosetta, purified (amylose resin, on-column cleavage, S200 SEC)
B3: Gle1^152–360 (domain or fragment, human, UniProt Q53GS7 152-360, looked up)
chain: EEQERKVQALSEMASEQLKRFDEWKELKQHKEFQDLREVMEKSSREALGHQEKLKAEHRHRAKILNLKLREAEQQRVKQAEQERLRKEEGQIRLRALYALQEEMLQLSQQLDASEQHKALLKVDLAAFQTRGNQLCSLISGIIRASSESSYPTAESQAEAERALREMRDLLMNLGQEITRACEDKRRQDEEEAQVKLQEAQMQQGPEAH
notes: also called coiled-coil domain; source: E. coli Rosetta, purified (amylose resin, on-column cleavage, 30% ammonium sulfate precipitation, S200 SEC)
B4: Gle1^(1–360 Δ45–54) (domain or fragment, human, UniProt Q53GS7 1-360, looked up)
chain: MPSEGRCWETLKALRSSDKGRLCYYRDWLLRREDVLEECMSLPKHVLPHMQENQPLSETSPSSTSASALDQPSFVPKSPDASSAFSPASPATPNGTKGKDESQHTESMVLQSSRGIKVEGCVRMYELVHRMKGTEGLRLWQEEQERKVQALSEMASEQLKRFDEWKELKQHKEFQDLREVMEKSSREALGHQEKLKAEHRHRAKILNLKLREAEQQRVKQAEQERLRKEEGQIRLRALYALQEEMLQLSQQLDASEQHKALLKVDLAAFQTRGNQLCSLISGIIRASSESSYPTAESQAEAERALREMRDLLMNLGQEITRACEDKRRQDEEEAQVKLQEAQMQQGPEAH
notes: also called Gle1^(1–360 45–54); source: E. coli Rosetta, purified (amylose resin, on-column cleavage, S200 SEC)
B5: MBP-Gle1^1–152 (domain or fragment, human, UniProt Q53GS7 1-152, looked up)
chain: MPSEGRCWETLKALRSSDKGRLCYYRDWLLRREDVLEECMSLPKLSSYSGWVVEHVLPHMQENQPLSETSPSSTSASALDQPSFVPKSPDASSAFSPASPATPNGTKGKDESQHTESMVLQSSRGIKVEGCVRMYELVHRMKGTEGLRLWQE
notes: source: E. coli Rosetta, purified (amylose resin eluted with maltose, ion exchange); not shown: MBP, N-terminal, kept

Assays:
[1] = molecular target: SspB-Gle1^152–360 fusion protein (E. coli | human) (UniProt Q53GS7); experiment: SEC-MALS; ACCORD (forced dimerization by SspB); Superose 6 10/300 GL; 20 mM HEPES (pH 7.6), 200 mM NaCl, 5% glycerol, 0.5 mM TCEP, 0.05% azide
[2] = molecular target: the molecule itself; experiment: SEC; S200 size-exclusion chromatography; 20 mM HEPES, pH 7.5, 200 mM NaCl, 0.5 mM TCEP, 10% glycerol; MBP as a size reference
[3] = molecular target: the molecule itself; experiment: native gel or EMSA; 4–15% acrylamide gradient native PAGE, 150 V for 90 min, Coomassie staining

Molecule	binding result [2]	other results
SspB-Gle1^152–360 fusion protein (from UniProt Q53GS7 152-360)	–	stoichiometry N [1]: 2
B1	binds	–
B2	binds	–
B3	–	binding result [3]: binds
B4	binds	–
B5	binds	–
